Test results taken from patent US20210087281A1 (AGOMAB THERAPEUTICS, published 2021).
Values belong to the binder of their own block, whether it stands above or below them.

Tests used:
[1] = target: T1, mouse MET-Fc (R&D Systems) (mouse, UniProt P16056 25-929, limits assumed); assay: competition ELISA, mMET-Fc in solid phase, competitor 0.3 nM biotinylated mHGF
T1 construct: bought chimeric protein; also called mMET; not shown: Fc part
Outline: (§1)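 N-terminally biotinylated HGF (NHS-LC-biotin); mAbs titrated 0-120 nM against coated MET-Fc; read-out IC₅₀ (50% competition) and IMAX (max % competition at saturation).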

[2] = target: T2, native mouse MET on living cells (mouse, UniProt P16056 25-1379); assay: cell-based or functional assay
[3] = target: T3, native human MET on living cells (human, UniProt P08581 25-1390); assay: cell-based or functional assay
[4] = target: T2, native mouse MET on living cells; assay: cell-based or functional assay; remark: listed apart in the source
[5] = target: T3, native human MET on living cells; assay: cell-based or functional assay; remark: listed apart in the source
[6] = target: T2, native mouse MET on living cells; assay: cell-based or functional assay; remark: listed apart in the source
[7] = target: T3, native human MET on living cells; assay: cell-based or functional assay; remark: listed apart in the source
[8] = target: T4, mouse MET ECD (mouse, UniProt P16056 25-931); assay: ELISA, MET ECD in solid phase, mAb 0-20 nM
T4 construct: range 1-931; recombinant ECD made by the applicants; the stated range begins at residue 1; also called mMET; mMET ECD
Outline: (§2)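 Chimeric llama-human IgG1 antibodies were expressed by transient transfection of mammalian cells and purified by protein A affinity chromatography. Their binding was then measured by ELISA against immobilized MET ECD, with antibody titrated in solution.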

[9] = target: T5, human MET ECD (human, UniProt P08581 25-932); assay: ELISA, MET ECD in solid phase, mAb 0-20 nM
T5 construct: range 1-932; recombinant ECD made by the applicants; the stated range begins at residue 1, so it includes the signal peptide of the entry; also called hMET; hMET ECD
Outline: as §2

[10] = target: T6, human MET-Fc (R&D Systems) (human, UniProt P08581 25-932); assay: competition ELISA, hMET-Fc in solid phase, competitor 0.3 nM biotinylated hHGF
T6 construct: extracellular domain; bought chimeric protein; also called hMET; not shown: Fc portion of human IgG1
Outline: as §1

[11] = target: T2, native mouse MET on living cells; assay: cell-based or functional assay; remark: listed apart in the source
[12] = target: T3, native human MET on living cells; assay: cell-based or functional assay; remark: listed apart in the source
[13] = target: T2, native mouse MET on living cells; assay: flow cytometry, MLP29 cells
Outline: (§3)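 Chimeric anti-MET antibodies were incubated with living cells expressing native MET, human on A549 and mouse on MLP29. Binding was detected by flow cytometry with phycoerythrin-conjugated anti-human IgG1. Commercial anti-MET antibodies with matching PE secondaries served as positive controls.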

[14] = target: T5, human MET ECD; assay: ELISA, MET ECD in solid phase, mAb 0-50 nM
Description: Using human MET as a template, we mutagenized each of these residues in different permutations, generating a series of MET mutants that are fully human except for specific residues, which are llama. Next, we tested the affinity of selected SEMA-binding mAbs (71D6, 71C3, 71D4, 71A3, 71G2) and PSI-binding mAbs (76H10 and 71G3) for these MET mutants by ELISA. To this end, the various MET proteins were immobilized in solid phase (100 ng/well in a 96-well plate) and then exposed to increasing concentrations of antibodies (0-50 nM) solution. […] Wild-type human MET was used as positive control.
TABLE 18 The epitopes of MET responsible for agonistic antibody binding represent residues conserved among H. sapiens, M. musculus, R. norvegicus, M. fascicularis but not among the same species and L. glama. The relevance of residues conserved among human, mouse, rat, cynomolgus monkey but not llama MET for binding to agonistic mAbs was tested by ELISA. Wild-type (WT) or mutant (MT) human MET ECD was immobilized in solid phase and exposed to increasing concentrations of mAbs in solution. […] All binding values were normalized to the WT protein and are expressed as % binding (EMAX) compared to WT MET.

[15] = target: T3, native human MET on living cells; assay: flow cytometry, A549 cells
Outline: as §3

[16] = target: human MET ECD mutant H (mutations 2, 4) (human) (UniProt P08581); assay: ELISA, MET ECD in solid phase, mAb 0-50 nM
[17] = target: human MET ECD mutant D (mutations 1, 2) (human) (UniProt P08581); assay: ELISA, MET ECD in solid phase, mAb 0-50 nM
[18] = target: human MET ECD mutant A (mutations 1, 2, 3) (human) (UniProt P08581); assay: ELISA, MET ECD in solid phase, mAb 0-50 nM
[19] = target: human MET ECD mutant E (mutations 2, 3, 4) (human) (UniProt P08581); assay: ELISA, MET ECD in solid phase, mAb 0-50 nM

T5 sequence (P08581 25-932 limits assumed, form in doubt): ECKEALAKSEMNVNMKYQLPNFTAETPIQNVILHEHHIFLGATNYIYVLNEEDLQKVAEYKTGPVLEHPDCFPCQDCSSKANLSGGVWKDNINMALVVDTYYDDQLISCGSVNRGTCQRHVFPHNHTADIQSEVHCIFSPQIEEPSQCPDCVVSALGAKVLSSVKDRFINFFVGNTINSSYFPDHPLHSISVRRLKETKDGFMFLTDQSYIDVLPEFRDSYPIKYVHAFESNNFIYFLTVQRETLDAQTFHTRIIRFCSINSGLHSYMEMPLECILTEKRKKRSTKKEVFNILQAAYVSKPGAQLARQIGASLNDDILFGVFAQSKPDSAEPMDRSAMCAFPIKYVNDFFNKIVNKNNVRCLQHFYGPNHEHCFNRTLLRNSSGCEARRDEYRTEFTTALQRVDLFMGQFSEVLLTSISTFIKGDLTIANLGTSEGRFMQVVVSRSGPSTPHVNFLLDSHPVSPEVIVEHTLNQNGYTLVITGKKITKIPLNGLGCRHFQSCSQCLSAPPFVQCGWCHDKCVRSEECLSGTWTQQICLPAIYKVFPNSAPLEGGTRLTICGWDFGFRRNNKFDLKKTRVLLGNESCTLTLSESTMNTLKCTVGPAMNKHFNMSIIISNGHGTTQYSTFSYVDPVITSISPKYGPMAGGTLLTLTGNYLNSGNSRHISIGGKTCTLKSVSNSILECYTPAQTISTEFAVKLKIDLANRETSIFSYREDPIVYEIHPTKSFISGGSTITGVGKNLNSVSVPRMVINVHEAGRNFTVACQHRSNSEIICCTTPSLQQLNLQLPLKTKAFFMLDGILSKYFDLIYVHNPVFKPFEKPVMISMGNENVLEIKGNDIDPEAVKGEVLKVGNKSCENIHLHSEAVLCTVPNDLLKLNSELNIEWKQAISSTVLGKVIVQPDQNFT
T6 sequence (P08581 25-932): as the sequence (P08581 25-932 limits assumed, form in doubt) above
T3 sequence (P08581 25-1390): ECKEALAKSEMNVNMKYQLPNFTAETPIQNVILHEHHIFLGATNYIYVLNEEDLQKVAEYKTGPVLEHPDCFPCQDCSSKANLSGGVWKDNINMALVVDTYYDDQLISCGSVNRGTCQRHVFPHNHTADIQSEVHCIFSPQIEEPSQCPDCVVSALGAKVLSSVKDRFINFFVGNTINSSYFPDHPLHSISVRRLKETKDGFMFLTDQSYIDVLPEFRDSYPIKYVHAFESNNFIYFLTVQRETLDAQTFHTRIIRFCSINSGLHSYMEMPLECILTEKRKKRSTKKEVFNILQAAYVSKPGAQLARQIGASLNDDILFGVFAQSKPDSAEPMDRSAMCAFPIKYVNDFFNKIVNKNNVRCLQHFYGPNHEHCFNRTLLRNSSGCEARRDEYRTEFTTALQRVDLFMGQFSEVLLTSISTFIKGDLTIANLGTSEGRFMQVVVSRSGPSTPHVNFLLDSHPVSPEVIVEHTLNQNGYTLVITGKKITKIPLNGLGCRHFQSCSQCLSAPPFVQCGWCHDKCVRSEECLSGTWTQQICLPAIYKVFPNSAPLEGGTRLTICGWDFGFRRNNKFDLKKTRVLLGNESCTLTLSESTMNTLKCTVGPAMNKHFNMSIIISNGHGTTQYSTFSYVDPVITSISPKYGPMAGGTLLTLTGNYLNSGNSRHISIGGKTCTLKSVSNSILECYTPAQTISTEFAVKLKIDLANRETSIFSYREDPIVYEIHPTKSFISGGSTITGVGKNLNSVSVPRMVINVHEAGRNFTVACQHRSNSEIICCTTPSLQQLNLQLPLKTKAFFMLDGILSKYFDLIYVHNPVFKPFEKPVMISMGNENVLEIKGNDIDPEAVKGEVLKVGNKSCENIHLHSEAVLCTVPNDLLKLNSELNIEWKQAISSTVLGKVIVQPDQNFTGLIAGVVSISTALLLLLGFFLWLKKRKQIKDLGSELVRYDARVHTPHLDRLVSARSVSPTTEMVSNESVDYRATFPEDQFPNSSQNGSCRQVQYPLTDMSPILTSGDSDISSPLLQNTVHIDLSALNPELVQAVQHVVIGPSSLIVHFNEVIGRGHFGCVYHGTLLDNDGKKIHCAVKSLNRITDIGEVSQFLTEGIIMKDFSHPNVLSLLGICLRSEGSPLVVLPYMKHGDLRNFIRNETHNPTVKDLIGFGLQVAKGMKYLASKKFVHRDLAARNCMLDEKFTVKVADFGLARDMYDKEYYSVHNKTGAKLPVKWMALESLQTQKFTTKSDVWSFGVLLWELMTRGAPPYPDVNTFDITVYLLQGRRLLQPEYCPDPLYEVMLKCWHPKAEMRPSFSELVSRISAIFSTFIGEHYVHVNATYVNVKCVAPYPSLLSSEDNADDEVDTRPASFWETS

IC50 [1]: 0.4 nM | IMAX [1]: 91.3% | scatter score 0-4, MLP29, 0.001 nM [4]: 0 score | scatter score 0-4, MLP29, 0.004 nM [4]: 0 score | scatter score 0-4, MLP29, 0.012 nM [4]: 0 score | scatter score 0-4, MLP29, 0.037 nM [4]: 0 score | scatter score 0-4, MLP29, 0.111 nM [4]: 0 score | scatter score 0-4, MLP29, 0.333 nM [4]: 0 score | scatter score 0-4, MLP29, 1.000 nM [4]: 1 score | scatter score 0-4, MLP29, 3.000 nM [4]: 2 score | scatter score 0-4, MLP29, 9.000 nM [4]: 2 score | scatter score 0-4, HPAF-II, 0.001 nM [5]: 0 score | scatter score 0-4, HPAF-II, 0.004 nM [5]: 0 score | scatter score 0-4, HPAF-II, 0.012 nM [5]: 0 score | scatter score 0-4, HPAF-II, 0.037 nM [5]: 0 score | scatter score 0-4, HPAF-II, 0.111 nM [5]: 0 score | scatter score 0-4, HPAF-II, 0.333 nM [5]: 0 score | scatter score 0-4, HPAF-II, 1.000 nM [5]: 1 score | scatter score 0-4, HPAF-II, 3.000 nM [5]: 2 score | scatter score 0-4, HPAF-II, 9.000 nM [5]: 2 score | phospho-MET ELISA EC50, MLP29 cells [6]: 0.51 nM | phospho-MET ELISA EMAX (% HGF activity), MLP29 cells [6]: 95.3% | phospho-MET ELISA EC50, A549 cells [7]: 0.59 nM | phospho-MET ELISA EMAX (% HGF activity), A549 cells [7]: 84.6% | EC50 [8]: 0.274 nM | EMAX (OD450) [8]: 1.17 AU | EC50 [9]: 0.207 nM | EMAX (OD450) [9]: 1.43 AU | IC50 [10]: 0.34 nM | IMAX [10]: 95.6% | branches per spheroid, MLP29 cells, 0.5 nM [11]: 16 branches | branches per spheroid, MLP29 cells, 2.5 nM [11]: 14.7 branches | branches per spheroid, MLP29 cells, 12.5 nM [11]: 21.7 branches | branches per spheroid, LOC cells, 0.5 nM [12]: 9 branches | branches per spheroid, LOC cells, 2.5 nM [12]: 15.7 branches | branches per spheroid, LOC cells, 12.5 nM [12]: 18.7 branches | EC50 [13]: 0.498 nM | EMAX [13]: 94.8 % relative to control | % binding (EMAX) compared to WT MET [14]: 100 % WT MET ECD | EC50 [15]: 0.371 nM | EMAX [15]: 107 % relative to control | % binding (EMAX) compared to WT MET [16]: 58.7 % WT MET ECD | % binding (EMAX) compared to WT MET [17]: 120 % WT MET ECD | % binding (EMAX) compared to WT MET [18]: 114 % WT MET ECD | % binding (EMAX) compared to WT MET [19]: 57.2 % WT MET ECD
B1: 71D4 chimeric llama-human IgG1 mAb (antibody, V domains shown)
VH: ELQLVESGGGLVQPGGSLRLSCAASGFTFSGYGMSWVRQAPGKGLEWVSDINSGGGSTSYADSVKGRFTISRDNAKNTLYLQMNSLKPEDTAVYYCAKDMRLYLARYNDYEAWDYWGQGTQVTVSS
VL: SSALTQPSALSVTLGQTAKITCQGGSLGSSYAHWYQQKPGQAPVLVIYDDDSRPSGIPERFSGSSSGGTATLTISGAQAEDEGDYYCQSADSSGNAAVFGGGTHLTVL
notes: llama VH on human IgG1 CH1-CH2-CH3, llama VL on human lambda CL
protection from staurosporine, viability EC50, MLP29 cells [2]: 29.8 nM | protection from staurosporine, viability EMAX, MLP29 cells [2]: 52.1% | protection from staurosporine, viability EC50, MCF10A cells [3]: 30.2 nM | protection from staurosporine, viability EMAX, MCF10A cells [3]: 51.7%

IC50 [1]: 0.54 nM | IMAX [1]: 87.7% | scatter score 0-4, MLP29, 0.001 nM [4]: 0 score | scatter score 0-4, MLP29, 0.004 nM [4]: 0 score | scatter score 0-4, MLP29, 0.012 nM [4]: 2 score | scatter score 0-4, MLP29, 0.037 nM [4]: 3 score | scatter score 0-4, MLP29, 0.111 nM [4]: 3 score | scatter score 0-4, MLP29, 0.333 nM [4]: 4 score | scatter score 0-4, MLP29, 1.000 nM [4]: 4 score | scatter score 0-4, MLP29, 3.000 nM [4]: 4 score | scatter score 0-4, MLP29, 9.000 nM [4]: 4 score | scatter score 0-4, HPAF-II, 0.001 nM [5]: 0 score | scatter score 0-4, HPAF-II, 0.004 nM [5]: 0 score | scatter score 0-4, HPAF-II, 0.012 nM [5]: 2 score | scatter score 0-4, HPAF-II, 0.037 nM [5]: 3 score | scatter score 0-4, HPAF-II, 0.111 nM [5]: 3 score | scatter score 0-4, HPAF-II, 0.333 nM [5]: 4 score | scatter score 0-4, HPAF-II, 1.000 nM [5]: 4 score | scatter score 0-4, HPAF-II, 3.000 nM [5]: 4 score | scatter score 0-4, HPAF-II, 9.000 nM [5]: 4 score | phospho-MET ELISA EC50, MLP29 cells [6]: 0.26 nM | phospho-MET ELISA EMAX (% HGF activity), MLP29 cells [6]: 96% | phospho-MET ELISA EC50, A549 cells [7]: 0.31 nM | phospho-MET ELISA EMAX (% HGF activity), A549 cells [7]: 86.6% | EC50 [8]: 0.176 nM | EMAX (OD450) [8]: 2.73 AU | EC50 [9]: 0.229 nM | EMAX (OD450) [9]: 2.4 AU | IC50 [10]: 0.51 nM | IMAX [10]: 93.4% | branches per spheroid, MLP29 cells, 0.5 nM [11]: 30.3 branches | branches per spheroid, MLP29 cells, 2.5 nM [11]: 42 branches | branches per spheroid, MLP29 cells, 12.5 nM [11]: 42.7 branches | branches per spheroid, LOC cells, 0.5 nM [12]: 24 branches | branches per spheroid, LOC cells, 2.5 nM [12]: 30.3 branches | branches per spheroid, LOC cells, 12.5 nM [12]: 31.3 branches | EC50 [13]: 0.811 nM | EMAX [13]: 144 % relative to control | % binding (EMAX) compared to WT MET [14]: 100 % WT MET ECD | EC50 [15]: 0.514 nM | EMAX [15]: 161 % relative to control | % binding (EMAX) compared to WT MET [16]: 76.7 % WT MET ECD | % binding (EMAX) compared to WT MET [17]: 128 % WT MET ECD | % binding (EMAX) compared to WT MET [18]: 117 % WT MET ECD | % binding (EMAX) compared to WT MET [19]: 65.4 % WT MET ECD
B2: 71A3 chimeric llama-human IgG1 mAb (antibody, V domains shown)
VH: EVQLVESGGGLVQPGGSLRLSCAASGFSFKDYDITWVRQAPGKGLEWVSTITSRSGSTSYVDSVKGRFTISGDNAKNTLYLQMNSLKPEDTAVYYCAKVYATTWDVGPLGYGMDYWGKGTLVTVSS
VL: SYELTQPSALSVTLGQTAKITCQGGSLGSSYAHWYQQKPGQAPVLVIYDDDSRPSGIPERFSGSSSGGTATLTISGAQAEDEGDYYCQSADSSGNAAVFGGGTHLTVL
notes: as for B1
protection from staurosporine, viability EC50, MLP29 cells [2]: < 0.5 nM | protection from staurosporine, viability EMAX, MLP29 cells [2]: 70.5% | protection from staurosporine, viability EC50, MCF10A cells [3]: < 0.5 nM | protection from staurosporine, viability EMAX, MCF10A cells [3]: 71.7%
